± gives the uncertainty stated by the source.
B1: Homeobox protein cut-like 1, residues 941 to 1008; numbered along this chain, P39880 (parent)
chain: QEVDTIELTRQVKEKLAKNGICQRIFGEKVLGLSQGSVSDMLSRPKPWSKLTQKGREPFIRMQLWLNG

Variants of: B1
Test: abundance fitness (aPCA) (normalised: wild type 0, dead -1); higher = more abundant; growth selection in yeast, the domain comes from the species named
Conditions: Homo sapiens

QEVDTIELTRQVKEKLAKNGICQRIFGEKVLGLSQGSVSDMLSRCKPWSKLTQKGREPFIRMQLWLNG and QEVDTIELTRQVKEKNAKNGICQRIFGEKVLGLSQGSVSDMLSRPKPWSKLTQKGREPFIRMQLWLNG are within error of each other in abundance fitness: -0.123 ± 0.06 for the first, -0.217 ± 0.15 for the second.

Going from QEVDTIELTRQVKEKYAKNGICQRIFGEKVLGLSQGSVSDMLSRPKPWSKLTQKGREPFIRMQLWLNG to QEVDTIELTRQVKEKHAKNGICQRIFGEKVLGLSQGSVSDMLSRPKPWSKLTQKGREPFIRMQLWLNG, the abundance fitness rises from -0.278 ± 0.1 to 0.009 ± 0.099.

Going from QEVDTIELTRQVWEKLAKNGICQRIFGEKVLGLSQGSVSDMLSRPKPWSKLTQKGREPFIRMQLWLNG to QEVDTIELTRQVKEKLAKNGICQRIFGEKVLGLDQGSVSDMLSRPKPWSKLTQKGREPFIRMQLWLNG, the abundance fitness rises from -0.459 ± 0.088 to -0.046 ± 0.1.

QEVDTIELTRQVKEKLAKNGICQRIFGEKVLGLRQGSVSDMLSRPKPWSKLTQKGREPFIRMQLWLNG and MEVDTIELTRQVKEKLAKNGICQRIFGEKVLGLSQGSVSDMLSRPKPWSKLTQKGREPFIRMQLWLNG are within error of each other in abundance fitness: 0.02 ± 0.055 for the first, 0.09 ± 0.081 for the second.

CEVDTIELTRQVKEKLAKNGICQRIFGEKVLGLSQGSVSDMLSRPKPWSKLTQKGREPFIRMQLWLNG and QEVDTIELTRQVKEKLAKNGICQRIFGEKVLGLSQGSVSDMHSRPKPWSKLTQKGREPFIRMQLWLNG are within error of each other in abundance fitness: -0.062 ± 0.13 for the first, -0.184 ± 0.084 for the second.

QEVDTIELTRQVKEKLAKNGICQRIFGEKVLGLSQGSVSDMLSRPKPWSKLTQKGHEPFIRMQLWLNG and QEVDTIELTRQVKEKLAKNGICQRIFGEKVLGLSQGSVSDMLSRPKPWSKLTQKGCEPFIRMQLWLNG are within error of each other in abundance fitness: -0.676 ± 0.15 for the first, -0.525 ± 0.11 for the second.

Going from QEVDTIELTRQVKEKLAKNGICQRIFGEKVLGLSQGSVSDMLSRPKPWSKLTQKGLEPFIRMQLWLNG to QEVDTIELTRQVKEKLAKNGICQRIFGEKVLGLSQGSVSDMLSRPKPWSKLTQKGREPFIRMQLWYNG, the abundance fitness falls from -0.418 ± 0.061 to -0.762 ± 0.091.

Compared with QEVDTIELTRQVKEKLAKNGICQRIFGEKVLGLSQGSVSDMLSRPKPWSKLTQKGREPFIRMQLWNNG, QEVDTIELIRQVKEKLAKNGICQRIFGEKVLGLSQGSVSDMLSRPKPWSKLTQKGREPFIRMQLWLNG is higher in abundance fitness: -0.568 ± 0.11 for the first, -0.113 ± 0.086 for the second.

QEVDTIELCRQVKEKLAKNGICQRIFGEKVLGLSQGSVSDMLSRPKPWSKLTQKGREPFIRMQLWLNG and QEVDTIELTRQVKEKLAKNGICQRIFGEKVLQLSQGSVSDMLSRPKPWSKLTQKGREPFIRMQLWLNG are within error of each other in abundance fitness: -0.087 ± 0.093 for the first, -0.138 ± 0.097 for the second.

First: QEVDTIELTRQVKEKLAKNGICQRIFGEKVLGLSQPSVSDMLSRPKPWSKLTQKGREPFIRMQLWLNG
Second: QEVDTIELTRQVKEKLAKNGICQRIFGEKVLGLSQGSVSDMLSRPKPWSKLTQKGREPFIRMALWLNG
The abundance fitness of the first is higher: -0.055 ± 0.062 for the first, -0.268 ± 0.051 for the second.

First: QEYDTIELTRQVKEKLAKNGICQRIFGEKVLGLSQGSVSDMLSRPKPWSKLTQKGREPFIRMQLWLNG
Second: QWVDTIELTRQVKEKLAKNGICQRIFGEKVLGLSQGSVSDMLSRPKPWSKLTQKGREPFIRMQLWLNG
The abundance fitness of the first is higher: -0.227 ± 0.12 for the first, -0.738 ± 0.033 for the second.

QEVDTIELTRQVKEKLAKNGICQRIFGEKVLGLSQGSYSDMLSRPKPWSKLTQKGREPFIRMQLWLNG and QEVDTIELTRQVKEKLAKNGICQRIFGEKVLGLSQGSKSDMLSRPKPWSKLTQKGREPFIRMQLWLNG are within error of each other in abundance fitness: 0.027 ± 0.11 for the first, -0.161 ± 0.083 for the second.

Compared with QEVDTIELTRQVKEKLAKNGICQRIFGEKVLGLSQGSHSDMLSRPKPWSKLTQKGREPFIRMQLWLNG, QEVDTIELTRQVKEKLAKNGICQRIFGEKVLGLSQGSVSDMLSRPKPWSKLTSKGREPFIRMQLWLNG is higher in abundance fitness: -0.308 ± 0.11 for the first, -0.022 ± 0.059 for the second.

QEVDTIELTRQVKEKLAKNGICQRIFGEKVLGLSQGSVSDMLSRPKPWSKLTQKGRECFIRMQLWLNG and QEVDTIELTRQVKEKLAKNGICQRIFGEKVLGLSQGDVSDMLSRPKPWSKLTQKGREPFIRMQLWLNG are within error of each other in abundance fitness: 0.099 ± 0.14 for the first, 0.251 ± 0.093 for the second.

First: QEVDTIELTRQVKEKLAKNGTCQRIFGEKVLGLSQGSVSDMLSRPKPWSKLTQKGREPFIRMQLWLNG
Second: QEVDTIELTRQVKEKLAKNGYCQRIFGEKVLGLSQGSVSDMLSRPKPWSKLTQKGREPFIRMQLWLNG
The abundance fitness of the first is lower: -0.197 ± 0.063 for the first, 0.019 ± 0.098 for the second.

First: QEVDTIELTRQVKEKLAKNGACQRIFGEKVLGLSQGSVSDMLSRPKPWSKLTQKGREPFIRMQLWLNG
Second: QEVDTIELTRQVKEKLAKNGQCQRIFGEKVLGLSQGSVSDMLSRPKPWSKLTQKGREPFIRMQLWLNG
The abundance fitness of the first is lower: -0.489 ± 0.089 for the first, -0.184 ± 0.072 for the second.

QEVDTIELTRQVKEKLAKNGICQRIFGEKVLGLSQGSVSDMLSRPKPWSKLTQKGREPFIRLQLWLNG and QEVDTIELTRQVKVKLAKNGICQRIFGEKVLGLSQGSVSDMLSRPKPWSKLTQKGREPFIRMQLWLNG are within error of each other in abundance fitness: -0.227 ± 0.058 for the first, -0.214 ± 0.067 for the second.

QEVDTIELTRQVKEKLAKNGICQRIFGEKVLGLSQGSVQDMLSRPKPWSKLTQKGREPFIRMQLWLNG and QEVDTIELTRQVKEKLAKNGICQRIFGEKVLGLSQGSVFDMLSRPKPWSKLTQKGREPFIRMQLWLNG are within error of each other in abundance fitness: -0.007 ± 0.07 for the first, -0.156 ± 0.095 for the second.

Going from QEVDTIELTRQVKEKLAKNGICQRIFGEKVVGLSQGSVSDMLSRPKPWSKLTQKGREPFIRMQLWLNG to QEVDTIELTRQVKEKLAKNGICQRIFGEFVLGLSQGSVSDMLSRPKPWSKLTQKGREPFIRMQLWLNG, the abundance fitness falls from -0.242 ± 0.049 to -0.524 ± 0.11.

QEVDTIELTRQVKEKLAKNGICQRIFGEAVLGLSQGSVSDMLSRPKPWSKLTQKGREPFIRMQLWLNG gave an abundance fitness of -0.258 ± 0.069.

Reference: the Human Domainome abundance scans (Beltran et al. 2025)
